The values that follow come from US20160237157A1.

For test [1], the target named is T1, FGFR4 (solid phase receptor-binding assay) (Homo sapiens (Human)) (UniProt P22455).
T1 sequence: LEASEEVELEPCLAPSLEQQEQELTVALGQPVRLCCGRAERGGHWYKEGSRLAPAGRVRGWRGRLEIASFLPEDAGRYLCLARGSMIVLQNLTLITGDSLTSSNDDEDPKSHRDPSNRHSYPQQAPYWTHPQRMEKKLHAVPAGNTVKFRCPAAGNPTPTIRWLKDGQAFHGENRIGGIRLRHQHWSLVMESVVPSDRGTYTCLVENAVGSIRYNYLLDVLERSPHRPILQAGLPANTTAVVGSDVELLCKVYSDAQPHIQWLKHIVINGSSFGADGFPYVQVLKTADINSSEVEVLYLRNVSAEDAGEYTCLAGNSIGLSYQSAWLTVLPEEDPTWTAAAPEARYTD
The test is described as follows: solid phase receptor-binding assay; LD1 titrated, inhibition of FGF1 binding to FGFR4.

Test [2] deals with T1, FGFR4 (solid phase receptor-binding assay) (Homo sapiens (Human)). The test is described as follows: solid phase receptor-binding assay; LD1 titrated, inhibition of FGF19 binding to FGFR4.
Test [3] concerns the target T2, human FGFR4 (soluble, Part B: SPR and FGFR4 ELISA) (human) (UniProt P22455).
T2 sequence: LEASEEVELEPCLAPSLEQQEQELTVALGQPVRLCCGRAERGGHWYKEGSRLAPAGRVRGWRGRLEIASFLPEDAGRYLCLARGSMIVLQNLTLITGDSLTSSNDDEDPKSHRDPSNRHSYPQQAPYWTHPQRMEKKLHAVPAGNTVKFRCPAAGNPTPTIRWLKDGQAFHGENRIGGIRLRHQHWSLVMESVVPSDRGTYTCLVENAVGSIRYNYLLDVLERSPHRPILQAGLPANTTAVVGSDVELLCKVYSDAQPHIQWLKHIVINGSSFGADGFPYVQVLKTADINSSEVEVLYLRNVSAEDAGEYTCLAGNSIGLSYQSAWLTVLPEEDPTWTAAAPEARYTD
The test is described as follows: SPR (BIAcore-2000), antibody immobilized, human FGFR4 injected. Background: SPR reads the build-up and loss of mass on a sensor chip optically.

The target in test [4] is human FGFR4-FGFR1 chimeric construct (hFGFR4/R1) on BaF3 cells (human) (UniProt P11362). The test is described as follows: cell-based or functional assay.

B1: chimeric LD1 (chLD1) (antibody, from a related filing, human IgG1, V domains shown)
VH: EVQLQQPGAVLVRPGTSVKLSCKASGYTFTNHWMNWVKQRPGQGLEWIGMIHPSDSETTLDQKFKDKATLTVDKSSSTAYMQLNRPTSEDSAVYYCTRGDISLFDYWGQGTTVTVSS
VL: DIQMTQTTSSLSASLGDRVTITCRTSQDISNFLNWYQQKPDGTFKILISYTSRLHSGVPSRFSGSGSGTDYSLTISTLEQEDFATYFCQQGNALPYTFGGGTKLEIE
On to B1, for which the 50% inhibitory concentration (IC50) (commonly the midpoint of a concentration-inhibition curve) in test [1] turned out to be 0.093 nM. Besides, the IC50 in test [2] came to 0.102 nM. In addition, in test [3], the Kd – broadly, the free concentration of one partner at which half of the binding sites on the other are occupied at equilibrium, for simple one-to-one binding – worked out at 0.45 nM and the koff (as a rule, the first-order rate constant of dissociation) came out at 0.000173 s⁻¹. For the same molecule, the inhibition of FGF1-stimulated proliferation of BaF3/FGFR4/R1 cells (5 nM FGF1), IC50 in test [4] worked out at 17.4 nM.
